# Assay results reported in the DeepSol protein solubility set.
# Test: soluble on expression in E. coli; label from the status in PepcDB or PDB records
row,Sequence,soluble on expression in E. coli
1,MGSDKIHHHHHHMSLQFDHETLGQRVLFGSGEAAQNLAAEISRLDAKNVMVVAGDFELPMARQVAADIDVKVWHSNVVMHVPIETAEEARSVAKENDIDVVVCVGGGSTTGLAKAIAMTTALPIIAVPTTYAGSEATNVWGLTEAARKTTGVDNKVLPVTVIYDSALTMSLPVEMSVASGLNGLAHCIDSLWGPKADPINAAMAAEGIRALSAGLPKIVADAQDVDGRDEALYGAYLAAVSFASAGSGLHHKICHVLGGTFNLPHAQTHATVLPYVLAFNAPYAPQAEQRAAAAFGSATALEGLQQLRAQVGAPQRLSDYGFTAAGIPEAVEIILEKVPANNPRTVTEENLTALLTTALNGDDPATLN,not soluble
2,MGSDKIHHHHHHMSMVQSAFPPRRNSVGVQVGSIRIGGGAPIVVQSMTNTDTEDEIATTVQVAQLARAGSELVRITVNTAEAARAVPGIRARLDDMGCQVPLIGDFHFNGHKLVTEYPGCARALAKYRINPGNVGHGKKRDEQFSILIEAACKYEKPVRIGVNWGSLDPELLARMMDENARSGDPRDASAVMYEALITSALQSAERAEEIGLGRDRIILSCKMSGVRDLITVYRALAARCDYALHLGLTEAGMGSKGIVASTAALSVLLLEGIGDTIRISLTPEPGGDRAREVVVAQEILQTTGLRAFVPLVAACPGCGRTTSTYFQELAESIQGYVREQMLVWREEYEGVENMTLAVMGCVVNGPGESKHANIGISLPGSGERPVAPVFVDGQKAVTLKGDNIAGEFRQIVDEYVQMKYPKKAVDAH,not soluble
3,MGSDKIHHHHHHMSNEHQLLVGLLKKLKDDALILPTLPEVAMRVQEVVGRPDSSLKQVAEIIGQDAAISARIIKVANSALYSRGVPAENINSAVTRIGLTQIKSIATSVAMEQLFISTNEMVWEVMDEVWRTSIDVTAAACSLLQIYNKKHPGSGLNYDTLTLAGLVHNIGALPVLTEAEAHPEMFTTIEHLRSLVRKMQGPIGRAVLKSWDFAPEVMEVVERWADLPYLGDHVSYLDFIRAAAFYTGELRAGNELEQRLDVFVKRGLPVSPEDLGSDAFLDSYHSIKASYE,not soluble
4,MGSDKIHHHHHHMSNENIVLARNTERAPKHHLAAQTVAFSHYNHLSAQLPIEPTSGQLVEGGIRAQATQCLKNIQAVVESINHVMSDIVRMTIFVKDMRDAAAVEEVYAAFFTHYYPAKTVVAVADLPLGASVQMEALVSNGEGTIPNAPQAGDLIKLTNQTVQAPIDALASQTVAFSHYNNLSAQLPIDPQTGRVVAGCVKTQTKQCLKNIKAILTSIDVPFDDIVKINIYLKDLSKLEAVNQVHAAFFPDSGIARTVNYMPARTVIAVADLPMGAAVQVEAVVSHGDGTPPQAIEDRHGLIIEANNTEHAPKCPFSTQTVAFSHYNHLSAQLPLDPKTNALVAGGIKEQTTQCLENIKAIIESVDHSLADLVKVNIFVKEIEELAAVDDVYQTYFPEGTPARRVIGVTDLPKGAQIQIEAIAGNAEGTPPIG,not soluble
5,MGSDKIHHHHHHMSNNSKISWTTTTWNVTAGCDPISDGCKNCYARMMAERLKAMGQAKYQNGFIPTIHSECLNEPFGWKGNKLVFVVSMGDLFHKDIPFDFIDKVIEVITKCPQHTFQILTKRAERMYEYFSTHAIPENVWLGVTVENQKVKGRIDYLKKLDAPVRFLSCEPLLEDLGTLDLSDIDWVIVGGESGNRARKVEKDWILNIKSQCDASTSTAFFFKQWGTWGADGVKRSAKENGCLLDGKEYHAYPTPRKIKP,not soluble
6,MGSDKIHHHHHHMSNRHDADTPARLSSGIDGIDDILGGGLTPHRMYLVEGAPGTGKTTLALQFLLKGVEEGQGGLYITLSETRPELIAVAESHGWDISRFTILELLSDEGLDPQYEQTVLHPAEVELGETVRNVIQHVDELKPARIVLDSLSELRLLSQNPLRYRRQILALKRYFATRECTVLLLDDNSSDPGDVQLHSIAHGVISLDNLVHDYGGNRRRARVAKMRGIKFREGYHDFTLDTGGIHVYPRLVAAEHHADFSTEVVSTGTAGLDALLGGGLIPGTNALMIGPSGVGKTTTVVSCLIAALERGERCVYYVFDETLTTLMTRCATLGIYLAPHVESGLLTLRQIDPAEISPGEFASDVRRSVEKKGVRYVAIDSLNAYLQAMPGERYLLLQMHELLGYLNQQGIVTMLVLGQHGIIGEVQNDIDISYLSDVVVLFRYFEHHGEVLTAITAVKSRANAHERSIRQFRLGVNGVEVGDALRDFEGVLSGLPAYRGSTALLGATNRVIETPGK,not soluble
7,MGSDKIHHHHHHMSNTLLFRPNEARALSALFRTGGLTRASLARELDLTRSTTGTLVQNLVDAGLARERESTTGNEAEPKVGRPGIVVEIAGSGVFFLGAYIGVNRIDVIAIDLSGTVRAKATRPFSGAASRPAQAMELIVALVDEVRRTLPPGARPHGLNVALPGFLDGDGETFHAAILGWHGVSLAQPISESIDLDVPVLLENDANAVAVAETYRSAPPDGKGDDSLVVLIENGVGGGIVSNGKLHRGQLGGAGEIGHMPIGEAGFVYDAVRPGRWETFIGKDALLARYAHISGVIGSLDAFIAVLASGDPTALACARDWARWLVRGLATLACVLQPGRIILAGSVSAIYPFVAEQTEALLAASLIEGYPTPRVETSSTGNDGPALGAAYLLHQAMLAGNTRPHMRDVAVL,not soluble
8,MGSDKIHHHHHHMSPKAAIHNRSGSFSDRWIAYCQQRNIPYKTVDCHSSDIIEELADCSFLMWNWSQTYAEDMLIARGLIKAVESMGIRVFPNSETCWHFDDKVAQKYLMEALGVPMVKSYVFLDRARALEWARKTEYPKVFKLRGGAGSSNVFLVNDINKAERLINKAFSTGFPPVSRWNALSERWWQFKRDKTFISFFNISRGIFRALIKNPTLERLPVQRNYAYFQDFVPDNDSDIRVIAIGKRAFGIKRMVREGDFRASGSGKILYDPELIPEACIRMTFDLAKKTRSQSLVLDFIFSDGSPLVVEMSYAFASHGYLSCPGYWRNDMTWVEGSFHPEDFMVDDLIVSSVERS,not soluble
9,MGSDKIHHHHHHMSRLVVKNLTKIFSLGFFSKRRIEAVKNVSFEVKEKEIVSLVGESGSGKTTTAKMILRLLPPTSGEIYFEGKDIWKDIKDRESLVEFRRKVHAVFQDPFASYNPFYPVERTLWQAISLLENKPSNKKEALELIKESLFRVGIDPKDVLGKYPHQISGGQKQRIMIARCWILRPLLIVADEPTSMIDASSRGGIIKLLEELREEQGTSIIFITHDLGLAYYVSDNIFVMKNGEIVERGHPDKVVLEPTHEYTKLLVGSIPKLYRKLEDL,not soluble
10,MGSDKIHHHHHHMSRQKFVNRERELAFLEERYASGDAELLIIYGRRRIGKTELLLHFARNKEHVYFLASEKPYRDNLRELQRMMGDFLGDRLFSRIEFSDIDELLIEFSKRVRGRRVVLIIDEFPYLIEHYKPVLSLIQRAWDMELSKSDLLLILCGSSVSSMETEVLGYKSPLYGRRTGQWMVDELPFWSLREFFPSYSTEDIVKVYGVLGGIPAYLLQFDPEKSFDENVVEKVLSKGAFLYEEAEILLKEEMREPANYFIILQAIASGRSRFGEIVNATGLDKSLVSKYLNVLEKLRIVEREVPVTASRKEALKRGKYSITDNYLAFWFRYVLPNKSYLETGLGKEIWERSKEDFKEYMGGVFERLLRKPEVFTKLTNFRFTKIGRWWHKGEEIDLVALNEREKKALFIEVKWKDLSEREARGILKDLKRKVKLVGLDEWGKHYGLVAKNVKGKDKIKEEGWLAWDLEDFERLGVSG,not soluble
11,MGSDKIHHHHHHMSSVGDFEEIILHDLKPYYHVPGAIHSEGITFVKETGTLLWVDIFKGEVHKVEDIEQPESSHSFFSISRANYGKNASIEYPPNPDELKESVGCIFPILDGASQNEIKQVLFGSKFGIGKLDFSKSEWEYVILYSECPELSTDRAYKLRSNDGNVSPDGKYIYVGLMSDFPFDLEPIGCLLRVDLLAHKIELVWNCLLIPNAIHWDESDQKTMYVTDSLNFTIWKCPGGDLLKRDELIDVKNSNNQSFESPEPDGSAIWFSKDGKHSGFLFITVWSTSKVQMFDLTNGKLLKEFILPEQTPRVSCCCFVGKDLFVTTANAEINDAVRTNTDKNGGCIYKIPNVLDGNVPLESTKRQPLH,not soluble
12,MGSDKIHHHHHHMSTFHPHPPTQNRLLAALPPIELDDLAPHLELVHLLPGDVLCKAGKQLSYAYFPTSSVISIHCLLENGTLSELTSVGREGMLGVSLFMGGEDTQSSATVQSAGYGYRLNAAFLLQEFNEGGMLQRLLLRYSHALVTEAAQNVICSRYHTAQQRLCRWLMSTWDRLGSQELVLTQESIASILGIRRESVTAIARRLQEAGTICYRRGRIMVNDQAALQRESCECYDIIKKEFDGVFDDVRVCEKARQNSINAANAL,not soluble
13,MGSDKIHHHHHHMSTLDIAEDNKIKNEEFKIWKKSIPSLYQHISSLKPIFGSGVDESPSTLRSIVFTNDSSCNKSKGVLSVPLLYSQGSEIFEVDCIVPLGLHYKKPESISEPLVQPDYTMESQKVEQTVLIPKWEFKGETIAKMIYVDNSEINVKVIALSTNGSLAWFREGVKSPVYTMMEPSTSLSSASSGNQNKPCVDFAISNDSKTLTVTKEKHLDNENATIKLIDNSGKIGEVLRTIPVPGIKNIQEIKFLNNQIFATCSDDGIIRFWGNEIGKKPLWILNDSLDGKTTCFAASPFVDTLFMTGTSGGALKVWDIRAVIALGDADAELNINQGHNKVNELFKVHHFYSEQVSKIEFSSISPMEVVTIGGLGNVYHWNFEPVFAIYNEIHEDFQGIISDELEAESMAFYHTEGCRREIGENNKVNTVAYHKYIEDLVATVDSDGLLTVYKPFTGKVLDGSREVGAAKS,not soluble
14,MGSDKIHHHHHHMSVAEPNSHTQRNQPRPIRVGVIGVGNMGQHHTRVLSSMKDVELVGVSDINVERGLETASKYKVRFFEDYCDLLPHVEAVCIAVPTRLHYAVGINCLLAGIHVLIEKPIAASISEAESLVNAAAESQCILQVGHIERFNPAFRELSKVMKTEEVLALEAHRMSPYSDRANDVSVVLDLMIHDIDLLLELAASPVTKLTASGTRALDSGYLDYVTATLGFANGIVATLTASKVTHRKIRRIVAHCKNSFTEADFLKNEILIHRQTSASPVNDHRHYRQDGLIEKVYTTNIQPLSAELEHFVNCVHGGNQPSVGGEQALKALRLASLIEQMALEERVWNPLDWQSESRVQSLTQSV,not soluble
15,MGSDKIHHHHHHMSVLCLDLGGTKLMLAQVEGKTLLDTWRYPVPADGNFEQLFDFLVTCIHSHLTPETYGISIGIPGMVDMQSGTLLEVLNIPALTATQLAQQLKNTFEMDVVVNNDANLFALGEAVLNSNQDMLGITLGTGVGAGVIFNGQLYSGKHCAAGEIGSLSYRDGIIEHYCSGQYFTTHHHMSGEHLYQKACEGDSQALQAFAHFGEHLAHMIAQTLLVYDPKDIVLGGSVSQSFPFFIEALKQKLQSLVYGPQLADLTISASQHHNAALIGAAQWFLQQQKSSDFN,not soluble
16,MGSDKIHHHHHHMSVLYDTIGIDYANLRKPDLRIAAQIDAALGDAQSVLNVGAGAGSYEPAGRAVTALEPSAEMIAQRPEGTAPVVQGPAEDLPFADNSFDAAMAVLTIHHWSDKARGLAEMRRVARNRAVLLTYDPAFRGQWQTEYWPGLIGLDDGAMPPMAFFEEHLGPVDTQPVLVPHDCSDGFLYAYWRRPQAYLDPRIRKGSSGFWMIDGVEEGAQRLQADLASGAWAARHAALLERENADMGYRLVIADLV,not soluble
17,MGSDKIHHHHHHMSVNGSQRVDLEVVANLIPPQSRVLDVGSGDGSLLELLQDTKQVDGRGLELSQRGVNECVARGLSVIQGDADKDLEFYPDKGFDFVVLSQTLQATRNPKLVLDELLRIGNRAIVSFPNFGHWRVRLSLFVKGRMPVTQDLPYSWYDTPNIHFCTIRDFVNLCEELGATVEKATALDAAGQKIGLSMPWWFWNFFGQQAVFLLKRN,not soluble
18,MGSDKIHHHHHHMSVPTTMFRLTGRDYPPAKLSHASLIIIDAQKEYLSGPLKLSGMDEAVANIARLLDAARKSGRPIIHVRHLGTVGGRFDPQGPAGQFIPGLEPLEGEIVIEKRMPNAFKNTKLHETLQELGHLDLIVCGFMSHSSVSTTVRRAKDYGYRCTLVEDASATRDLAFKDGVIPAAQIHQCEMAVMADNFACVAPTASLI,not soluble
